Read-outs that look alike come from different tables or passages of the source. No end group written: not given here.
B1: Bivalent Fc-L10-ShK[2-35] homodimer (Fc fusion)
chain: GGGGSGGGGSSCIDTIPKSRCTAFQCKHSMKYRLSFCRKTCGTC
modifications: not fully specified (N-terminus); ends and bridges not checked; also: homodimer via Fc
B2: Bivalent Fc-L10-ShK[1-35] homodimer (Fc fusion)
chain: GGGGSGGGGSRSCIDTIPKSRCTAFQCKHSMKYRLSFCRKTCGTC
modifications: not fully specified (N-terminus); ends and bridges not checked; also: homodimer via Fc

Assays:
[1] = target: T1, human Kv1.1 (Homo sapiens, UniProt Q09470); assay: cell-based or functional assay
[2] = target: T2, human Kv1.3 (Homo sapiens, UniProt P22001); assay: cell-based or functional assay
[3] = target: T1, human Kv1.1; assay: cell-based or functional assay; remark: listed apart in the source
[4] = target: T2, human Kv1.3; assay: cell-based or functional assay; remark: listed apart in the source
[5] = target: T2, human Kv1.3; format: cell-based; conditions: read-out: Kv1.3 IC50, whole cell patch clamp
[6] = target: hKv1.3 (Homo sapiens, UniProt P22001); assay: cell-based; format: cell-based
[7] = system: IL-2 secretion from T cells in human whole blood; format: cell-based
[8] = system: IFN-g secretion from T cells in human whole blood; format: cell-based
[9] = format: in vivo, rat; conditions: Sprague-Dawley rats
Description: Single subcutaneous doses were delivered to animals and serum was collected at various time points after injection. Studies in rats, dogs (beagles), and cynomolgus monkeys involved two to three animals per dose group, with blood and serum collection occurring at various time points over the course of the study. Male Sprague-Dawley (SD) rats (about 0.3 kg), male beagles (about 10 kg) and male cynomolgus monkeys (about 4 kg) were used in the studies described herein (n=3 animals per dose group). Approximately 5 male CD-1 mice were used per dose and time point in our mouse pharmacokinetic studies. Serum samples were stored frozen at −80° C., until analysis in an enzyme-linked immunosorbent assay (ELISA).
Single subcutaneous doses were delivered to animals and serum was collected at various time points after injection. Three animals were used per dose group, with blood and serum collection occurring at various time points over the course of the study. Serum samples were stored frozen at −80° C., until analysis in an enzyme-linked immunosorbent assay (ELISA). […] A brief description of these ELISA protocols is provided: […]

[10] = system: human CD34-derived mast cells
[11] = read-out: WB (IL-2) IC50 (nM, Avg)
[12] = read-out: WB (IFNg) IC50 (nM, Avg)

T2 sequence (P22001 whole entry): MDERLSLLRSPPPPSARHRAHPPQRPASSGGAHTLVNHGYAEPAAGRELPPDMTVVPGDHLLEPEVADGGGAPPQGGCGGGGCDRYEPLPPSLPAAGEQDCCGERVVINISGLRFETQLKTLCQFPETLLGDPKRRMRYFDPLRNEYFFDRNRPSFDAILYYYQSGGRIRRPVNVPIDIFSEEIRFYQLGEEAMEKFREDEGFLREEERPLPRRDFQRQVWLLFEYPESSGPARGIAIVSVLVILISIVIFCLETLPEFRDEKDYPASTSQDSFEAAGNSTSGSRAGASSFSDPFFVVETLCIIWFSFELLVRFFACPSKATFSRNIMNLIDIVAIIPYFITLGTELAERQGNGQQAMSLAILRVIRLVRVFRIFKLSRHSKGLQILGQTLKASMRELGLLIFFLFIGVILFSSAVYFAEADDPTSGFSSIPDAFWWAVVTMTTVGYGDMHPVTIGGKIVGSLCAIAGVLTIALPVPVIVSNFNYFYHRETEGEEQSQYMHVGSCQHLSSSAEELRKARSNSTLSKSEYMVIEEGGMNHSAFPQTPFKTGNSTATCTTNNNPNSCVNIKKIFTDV
hKv1.3, sequence (P22001 whole entry): as above
T1 sequence (Q09470 whole entry): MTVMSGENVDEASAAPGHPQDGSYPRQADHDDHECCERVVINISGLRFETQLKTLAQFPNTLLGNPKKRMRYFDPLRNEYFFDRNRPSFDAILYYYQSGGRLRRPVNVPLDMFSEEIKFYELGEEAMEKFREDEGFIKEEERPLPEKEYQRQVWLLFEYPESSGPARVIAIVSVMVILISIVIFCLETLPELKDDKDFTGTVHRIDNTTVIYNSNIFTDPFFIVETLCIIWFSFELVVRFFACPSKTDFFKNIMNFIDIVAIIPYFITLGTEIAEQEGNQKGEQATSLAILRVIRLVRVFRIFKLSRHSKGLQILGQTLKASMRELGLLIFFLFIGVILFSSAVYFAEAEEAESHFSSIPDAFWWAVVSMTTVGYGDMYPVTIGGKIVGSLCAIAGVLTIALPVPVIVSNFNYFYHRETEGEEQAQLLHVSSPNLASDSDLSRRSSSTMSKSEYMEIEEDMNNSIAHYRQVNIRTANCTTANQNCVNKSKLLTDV

| Molecule | Kv1.3 (IWQ) IC50 [2] | WB (IFNg) IC50 [2] | WB (IL-2) IC50 [2] | other results |
| --- | --- | --- | --- | --- |
| 20 kDa PEG-ShK (peptide) | 1.21 nM | 0.855 nM | 0.387 nM | Kv1.1 (IWQ) IC50 [1]: 0.11 nM; Kv1.1 IC50 (whole cell patch clamp) [3]: 1.63 nM; Kv1.3 IC50 (whole cell patch clamp) [4]: 0.299 nM; WB (IFNg) IC50 [4]: 0.84 nM; WB (IL-2) IC50 [4]: 0.38 nM |
| 20 kDa-PEG-ShK: ShK conjugated with an N-terminal 20 kDa PEG moiety |  |  |  | IC50 [5]: 0.299 nM; IC50 ([6]; read-out: Kv1.3 (IWQ) IC50 (nM, Avg)): 1.21 nM; IC50 ([7]; read-out: WB (IL-2) IC50): 0.38 nM; IC50 [7, 11]: 0.387 nM; IC50 ([8]; read-out: WB (IFNg) IC50): 0.84 nM; IC50 [8, 12]: 0.855 nM; AUC0-inf ([9]; SC 0.3 mg/kg): 6,020 ng · hr · mL^−1; AUC0-t ([9]; SC 0.3 mg/kg): 6011 ng·h/mL; Cmax ([9]; SC 0.3 mg/kg): 165 ng/mL; DNAUC (0-inf) ([9]; SC 0.3 mg/kg): 20065; MRT ([9]; SC 0.3 mg/kg): 27 h; Tmax ([9]; SC 0.3 mg/kg): 24 h; AUC0-inf ([9]; SC 2 mg/kg): 42374 ± 10,237 ng · hr · mL^−1; AUC0-t ([9]; SC 2 mg/kg): 42347 ± 10,228 ng · hr · mL^−1; Cmax ([9]; SC 2 mg/kg): 1138 ± 404 ng/mL; DNAUC (0-inf) ([9]; SC 2 mg/kg): 21187; MRT ([9]; SC 2 mg/kg): 37 ± 3 h; Tmax ([9]; SC 2 mg/kg): 24 ± 0 h |
| 20kDaPEG-[1-Nal16]ShK (peptide) | 39.1 nM | 100 nM | 100 nM |  |
| 30kDaPEG-ShK (peptide) | 1.93 nM | 2.42 nM | 0.372 nM | Kv1.1 (IWQ) IC50 [1]: 0.182 nM |
| 30kPEG-[Lys16]ShK (peptide) | 0.454 nM |  |  | Kv1.1 (IWQ) IC50 [1]: 33.3 nM; Kv1.1 (PX) IC50 [3]: 1070 nM; Kv1.3 (PX) IC50 [4]: 1.2 nM; WB (IFNg) IC50 [4]: 0.491 nM; WB (IL-2) IC50 [4]: 0.282 nM |
| CC[C@H](C)[C@@H]1NC(=O)[C@@H](NC(=O)[C@H](CO)NC(=O)[C@@H](N)CCCNC(=N)N)CSSC[C@@H](C(=O)O)NC(=O)[C@H](CCCCN)NC(=O)CNC(=O)[C@@H]2CSSC[C@@H]3NC(=O)[C@H](CCC(N)=O)NC(=O)[C@H](Cc4ccccc4)NC(=O)[C@H](C)NC(=O)[C@H]([C@@H](C)O)NC(=O)[C@H](CSSC[C@H](NC(=O)[C@H](Cc4ccccc4)NC(=O)[C@H](CO)NC(=O)[C@H](CC(C)C)NC(=O)[C@H](CCCNC(=N)N)NC(=O)[C@H](Cc4ccc(O)cc4)NC(=O)[C@H](CCCCN)NC(=O)[C@H](CCSC)NC(=O)[C@H](CO)NC(=O)[C@H](Cc4c[nH]cn4)NC(=O)[C@H](CCCCN)NC3=O)C(=O)N[C@@H](CCCNC(=N)N)C(=O)N[C@@H](CCCCN)C(=O)N[C@@H]([C@@H](C)O)C(=O)N2)NC(=O)[C@H](CCCNC(=N)N)NC(=O)[C@H](CO)NC(=O)[C@H](CCCCN)NC(=O)[C@@H]2CCCN2C(=O)[C@H]([C@@H](C)CC)NC(=O)[C@H]([C@@H](C)O)NC(=O)[C@H](CC(=O)O)NC1=O [[Lys34]ShK] |  |  |  | IC50 ([6]; Kv1.3 (IWQ) IC50 (nM, Avg)): 0.15 nM; IC50 [7, 11]: 0.067 nM; IC50 [8, 12]: 0.136 nM |
| CCCC[C@@H]1NC(=O)[C@H](CO)NC(=O)[C@H](Cc2c[nH]cn2)NC(=O)[C@H](CCCCN)NC(=O)[C@@H]2CSSC[C@@H]3NC(=O)[C@H]([C@@H](C)O)NC(=O)[C@H](CCCCN)NC(=O)[C@H](CCCNC(=N)N)NC(=O)[C@H](CSSC[C@H](NC(=O)[C@H](CCCNC(=N)N)NC(=O)[C@H](CO)NC(=O)[C@H](CCCCN)NC(=O)[C@@H]4CCCN4C(=O)[C@H]([C@@H](C)CC)NC(=O)[C@H]([C@@H](C)O)NC(=O)[C@H](CC(=O)O)NC(=O)[C@H]([C@@H](C)CC)NC(=O)[C@@H](NC(=O)[C@H](CO)NC(=O)[C@@H](N)CCCNC(=N)N)CSSC[C@@H](C(N)=O)NC(=O)[C@H]([C@@H](C)O)NC(=O)CNC3=O)C(=O)N[C@@H]([C@@H](C)O)C(=O)N[C@@H](C)C(=O)N[C@@H](Cc3ccccc3)C(=O)N[C@@H](CCC(N)=O)C(=O)N2)NC(=O)[C@H](Cc2ccccc2)NC(=O)[C@H](CO)NC(=O)[C@H](CC(C)C)NC(=O)[C@H](CCCNC(=N)N)NC(=O)[C@H](Cc2ccc(O)cc2)NC(=O)[C@H](CCCCN)NC1=O [[Nle21]ShK-amide] |  |  |  | IC50 ([6]; Kv1.3 (IWQ) IC50 (nM, Avg)): 0.04 nM; IC50 [7, 11]: 0.325 nM; IC50 [8, 12]: 1.13 nM |
| Fc.L20.FcLoop(ShK) (Fc fusion) |  |  |  | In vitro whole blood assay (inhibition of IL-2) IC50 [2]: 2.01 nM |
| FcLoop(ShK).L25.Fc (Fc fusion) |  |  |  | In vitro whole blood assay (inhibition of IL-2) IC50 [2]: 1.91 nM |
| FcLoopShk/FcLoopShk (bivalent Fc) (Fc fusion) |  |  |  | In vitro whole blood assay (inhibition of IL-2) IC50 [2]: 2 nM |
| HmK (peptide) | 0.9 nM | 1.2 nM | 0.85 nM | Kv1.1 (IWQ) IC50 [1]: 0.015 nM |
| MCDP: basic secretagogue, positive control (IKCNCKRHVIKPHICRKICGKN; ends and bridges not checked; cysteine pairing not given here; UniProt P01499 28-49, looked up) |  |  |  | Degranulation / histamine release of human CD34-derived mast cells [10]: highly active |
| Monovalent Fc/Fc-L10-ShK[2-35] heterodimer (Fc fusion) |  |  |  | WB (IFNg) IC50 [4]: 5.2 nM; WB (IL-2) IC50 [4]: 2.15 nM |
| [1-Nal1]ShK (peptide) | 0.225 nM | 0.247 nM | 0.222 nM | Kv1.1 (IWQ) IC50 [1]: 0.005 nM |
| [1-Nal2]ShK (peptide) | 0.25 nM | 0.258 nM | 0.223 nM |  |
| [1-Nal4]ShK (peptide) | 0.15 nM | 0.317 nM | 0.274 nM |  |
| [1-Nal5]ShK (peptide) |  | 31.9 nM | 70.4 nM |  |
| [1-Nal6]ShK (peptide) | 0.15 nM | 0.962 nM | 0.86 nM |  |
| [1-Nal7]ShK (peptide) | 0.699 nM | 18 nM | 11.6 nM |  |
| [1-Nal10]ShK (peptide) | 0.206 nM | 0.255 nM | 0.205 nM |  |

| Molecule | Kv1.3 (IWQ) IC50 [2] | WB (IFNg) IC50 [2] | WB (IL-2) IC50 [2] | other results |
| --- | --- | --- | --- | --- |
| [1-Nal11]ShK (peptide) | 0.922 nM | 1.65 nM | 1.14 nM |  |
| [1-Nal14]ShK (peptide) |  | 0.11 nM | 0.089 nM |  |
| [1-Nal15]ShK (peptide) | 0.072 nM | 0.291 nM | 0.184 nM | Kv1.1 (IWQ) IC50 [1]: 0.009 nM |
| [1-Nal16]ShK (peptide) | 0.699 nM | 9.55 nM | 28.9 nM |  |
| [1-Nal18]ShK (peptide) | 0.471 nM | 0.375 nM | 0.419 nM |  |
| [1-Nal19]ShK (peptide) | 0.277 nM | 0.255 nM | 0.153 nM | Kv1.1 (IWQ) IC50 [1]: 0.001 nM |
| [1-Nal20]ShK (peptide) | 2.11 nM | 100 nM | 100 nM |  |
| [1-Nal21]ShK (peptide) | 0.669 nM | 8.13 nM | 6.59 nM |  |
| [1-Nal23]ShK (peptide) | 3.3 nM | 100 nM | 100 nM | Kv1.1 (IWQ) IC50 [1]: 3.3 nM |
| [1-Nal25]ShK (peptide) | 0.106 nM | 0.084 nM | 0.061 nM |  |
| [1-Nal26]ShK (peptide) | 0.352 nM | 0.573 nM | 0.357 nM |  |
| [1-Nal27]ShK (peptide) | 0.144 nM | 2.84 nM | 1.07 nM |  |
| [1-Nal29]ShK (peptide) |  | 8.08 nM | 4.72 nM |  |
| [1-Nal31]ShK (peptide) |  |  |  | Kv1.1 (IWQ) IC50 [1]: 0.004 nM |
| [1-Nal34]ShK (peptide) | 0.077 nM | 0.063 nM | 0.018 nM |  |
| [Dab16]ShK (peptide) | 0.082 nM |  | 0.086 nM |  |
| [Nle21]ShK (peptide) | 0.04 nM | 0.303 nM | 0.153 nM | Kv1.1 (IWQ) IC50 [1]: 0.015 nM |
| substance P: basic secretagogue, positive control |  |  |  | Degranulation / histamine release of human CD34-derived mast cells [10]: highly active |
| B1 |  |  |  | Kv1.1 IC50 (whole cell patch clamp) [3]: 0.411 nM; Kv1.3 IC50 (whole cell patch clamp) [4]: 0.116 nM; WB (IFNg) IC50 [4]: 2.29 nM; WB (IL-2) IC50 [4]: 0.585 nM |
| B2 |  |  |  | Kv1.1 IC50 (whole cell patch clamp) [3]: 0.067 nM; Kv1.3 IC50 (whole cell patch clamp) [4]: 0.015 nM; WB (IFNg) IC50 [4]: 0.32 nM; WB (IL-2) IC50 [4]: 0.386 nM |
